Publication PMC4361775
Blank lines part the entries; values can stand above or below the substance they belong to.

Tests used:
[1] = target: type II human collagen (human); test: SPR
[2] = target: coch_vWFA2_F527C protein, monomeric form (recombinant vWFA2 domain of human cochlin carrying the p.F527C mutation) (human); test: non-reducing SDS-PAGE
[3] = target: type II collagen (UniProt P02458); test: SPR; details: cited from earlier work
type II collagen, sequence (P02458 182-1241): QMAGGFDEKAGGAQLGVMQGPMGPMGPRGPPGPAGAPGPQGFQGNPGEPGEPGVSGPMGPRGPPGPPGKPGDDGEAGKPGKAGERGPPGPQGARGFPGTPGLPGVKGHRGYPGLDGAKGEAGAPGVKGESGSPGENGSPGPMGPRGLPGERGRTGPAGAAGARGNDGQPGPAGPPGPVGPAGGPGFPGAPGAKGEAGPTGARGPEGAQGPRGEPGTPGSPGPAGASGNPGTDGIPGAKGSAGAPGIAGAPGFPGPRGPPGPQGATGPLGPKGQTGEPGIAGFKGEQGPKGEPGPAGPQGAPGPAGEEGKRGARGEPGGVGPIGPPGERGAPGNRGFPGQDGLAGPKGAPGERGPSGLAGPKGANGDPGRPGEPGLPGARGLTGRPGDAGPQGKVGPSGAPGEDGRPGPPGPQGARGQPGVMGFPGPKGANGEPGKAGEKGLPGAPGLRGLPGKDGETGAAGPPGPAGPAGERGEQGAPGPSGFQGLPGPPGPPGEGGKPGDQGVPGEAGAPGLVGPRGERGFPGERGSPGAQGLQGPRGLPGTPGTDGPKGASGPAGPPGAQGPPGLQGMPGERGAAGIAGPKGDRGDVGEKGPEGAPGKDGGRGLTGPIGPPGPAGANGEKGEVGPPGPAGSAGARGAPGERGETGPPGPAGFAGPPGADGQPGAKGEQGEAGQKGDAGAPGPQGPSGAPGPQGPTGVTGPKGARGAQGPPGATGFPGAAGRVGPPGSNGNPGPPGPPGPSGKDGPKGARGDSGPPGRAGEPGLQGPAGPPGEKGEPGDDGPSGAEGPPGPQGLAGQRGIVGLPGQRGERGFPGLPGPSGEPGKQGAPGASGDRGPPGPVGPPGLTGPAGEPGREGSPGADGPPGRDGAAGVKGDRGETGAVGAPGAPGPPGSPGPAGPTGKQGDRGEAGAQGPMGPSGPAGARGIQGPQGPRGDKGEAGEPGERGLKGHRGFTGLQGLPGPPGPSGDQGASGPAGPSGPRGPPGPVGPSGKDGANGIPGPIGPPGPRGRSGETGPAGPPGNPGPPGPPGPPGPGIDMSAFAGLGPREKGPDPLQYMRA

- Kd of the higher-affinity species (heterogeneous analyte, two species 1:1) [1]: 950 nM
Substance: coch_vWFA2_F527C protein, dimeric form (covalent disulfide-bonded dimer) (domain or fragment)

- stoichiometry N [2]: 2
Substance: coch_vWFA2_F527C protein, monomeric form (recombinant vWFA2 domain of human cochlin carrying the p.F527C mutation) (domain or fragment)

Substance: cochlin vWFA2 (from UniProt O43405)
- Kd [3]: 94.5 nM
